Data as given in US9658208B2, “Methods and G proteins for screening and identifying ligands of G protein-coupled receptors” (Fred Hutchinson Cancer Research Center, priority 2011, dated 2017).

Key:
[1] = tested on: nine GPCRs that do not bind to Gαs (serotonin 1b, neuropeptide Y1, leukotriene B4, dopamine D4, GNRH, UDP, calcium-sensing, T1R2/T1R3); assay: CRE-SEAP reporter gene assay, coupling of chimeric G proteins with a variety of GPCRs; assay type: cell-based; settings: HEK-293 cells, GPCR ligand 48 hours
Text: (§1) The GPCRs examined were those that couple with Gαi/Gαo subunits (serotonin 1b, neuropeptide Y1, leukotriene B4, and dopamine D4), Gαq (GNRH, UDP, and calcium-sensing receptors), and the orphan mammalian sweet taste receptor complex (T1R2 and T1R3) with unknown coupling preference. The Gαs-based chimeric G proteins examined in this example were Gαs-Gαi-5, Gαs-Gαt-13 (SEQ ID NO: 3), Gαs-Gαo-13 (SEQ ID NO: 4), Gαs-Gαi-13 (SEQ ID NO: 5), Gαs-Gαz-6 (SEQ ID NO: 18), Gαs-Gα15-13 (SEQ ID NO: 7), Gαs-Gαk-5 (SEQ ID NO: 2), and Gαs-Gαq-13 (SEQ ID NO: 8). The chimeric G protein constructs were prepared as described herein. For the coupling assay, HEK-293 cells were cotransfected with each of the Gαs-based chimeric G protein constructs of interest together with the CRE-SEAP reporter gene construct and a cDNA encoding the GPCR to be tested. The transfected cells were cultured in the presence or absence of a GPCR ligand and then assayed for SEAP activity.
Chimeric G protein cloning: An insert containing rat Gαs cDNA was cut out using the restriction enzymes SaII and HinDIII, and ligated into pcDNA3.1(−) cut with XhoI and HinDIII. The chimeric G proteins with the desired C-terminal amino acid substitutions from the Gαi, Gαt, Gαo, Gαz, Gα15, Gαk, and Gαq were prepared by PCR using Gαs as a template. More specifically, Gαs was PCR amplified between an internal EcoRI site and the stop codon, with a 3′ HinDIII placed immediately after the stop codon. A different 3′ oligonucleotide was used for each Gαs chimera and contained a 39 bp sequence that encoded the substituted amino acids at the C-terminus selected from the donor Gα subunit.
GPCR cloning: Mouse 5-HT1B, mouse dopamine D4, human GNRH, and human neuropeptide Y1 receptors were cloned by PCR from cDNA templates (ATCC) and ligated into pcDNA 3.1(−) (Invitrogen) for expression in mammalian cells. […]
(§2) Following transfection, the cells were maintained for 48 hours in 200 ul serum free media containing GPCR ligand. […] Fluorescence was then measured using a CytoFluor 4000 multi well plate reader (Applied Biosystems).

dopamine D4 receptor = molecular target: T1, dopamine D4 receptor (Mus musculus, UniProt P51436); assay: CRE-SEAP reporter gene assay, coupling with dopamine D4; assay type: cell-based; settings: HEK-293 cells, 1 uM dopamine
T1 construct: expressed in transfected cells; host or cells: HEK-293
T1 sequence (P51436 1-387): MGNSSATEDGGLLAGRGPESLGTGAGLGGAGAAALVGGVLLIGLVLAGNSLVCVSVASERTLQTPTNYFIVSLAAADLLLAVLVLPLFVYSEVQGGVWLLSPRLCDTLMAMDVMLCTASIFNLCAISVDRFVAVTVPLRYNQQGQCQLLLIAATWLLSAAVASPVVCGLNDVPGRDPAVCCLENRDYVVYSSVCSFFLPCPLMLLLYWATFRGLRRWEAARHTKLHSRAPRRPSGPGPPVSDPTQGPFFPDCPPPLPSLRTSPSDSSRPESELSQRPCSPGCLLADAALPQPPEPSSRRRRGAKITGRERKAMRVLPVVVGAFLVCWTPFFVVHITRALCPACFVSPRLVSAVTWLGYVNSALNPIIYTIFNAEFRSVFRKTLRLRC
Text: as §1
Chimeric G protein cloning: An insert containing rat Gαs cDNA was cut out using the restriction enzymes SaII and HinDIII, and ligated into pcDNA3.1(−) cut with XhoI and HinDIII. […]
as §2

B1: Gαs-Gαt-13: Gαs-based chimeric G protein, final 13 C-terminal amino acids substituted with those of Gαt (protein)
chain: MGCLGNSKTEDQRNEEKAQREANKKIEKQLQKDKQVYRATHRLLLLGAGESGKSTIVKQMRILHVNGFNGEGGEEDVPDYASNSDGEKATKVQDIKNNLKEAIETIVAAMSNLVPPVELANPENQFRVDYILSVMNVPNFDFPPEFYEHAKALWEDEGVRACYERSNEYQLIDCAQYFLDKIDVIKQADYVPSDQDLLRCRVLTSGIFETKFQVDKVNFHMFDVGGQRDERRKWIQCFNDVTAIIFVVASSSYNMVIREDNQTNRLQEALNLFKSIWNNRWLRTISVILFLNKQDLLAEKVLAGKSKIEDYFPEFARYTTPEDATPEPGEDPRVTRAKYFIRDEFLRISTASGDGRHYCYPHFTCAVDTENIRRVFNDCRDIIIKENLKDCGLF
modifications: Chimeric protein
notes: Gαs-based chimeric G protein, final 13 C-terminal amino acids substituted with those of Gαt
Q: For B1, which “GPCRs tested that coupled to the chimera” value [1] is on record?
A: Its value is “All but one”.

Q: What about the “coupling with dopamine D4 receptor” value (dopamine D4 receptor) of the same molecule?
A: The value was “did not couple”.
